Results taken from publication PMC6699074, “Structural and functional characterization of a novel cold-active S-formylglutathione hydrolase (SfSFGH) homolog from Shewanella frigidimarina, a psychrophilic bacterium” (Microbial Cell Factories, 2019).
Numbering of substitutions follows the chain as printed. Numbers in names are those of the source.

B1: SfSFGH (Shewanella frigidimarina NCIMB 400) (protein)
chain: MTIENMSVNKSFGGWHKQYSHQSQTLNCEMRFAIYLPPQASSGKKVPVLYWLSGLTCTDENFMQKAGAQALAAELGIAIVAPDTSPRGENVADDEGYDLGKGAGFYVNATQAPWNRHYRMYDYVVDELPKLIESMFPVSDKRSIAGHSMGGHGALVIALRNADAYQSVSAFSPISNPINCPWGKKALTAYLGRDSATWMEYDASVLMRQATQFVPALVDQGDADNFLVEQLKPEVLEAAAKVKGYPLELNYREGYDHSYYFISSFIENHLRFHAEHLGK
B2: SfSFGH (Shewanella frigidimarina NCIMB 400; W182A) (protein)
chain: B1 chain with W182A

Tests used:
[1] = biological target: S-formylglutathione hydrolase (SfSFGH) from Shewanella frigidimarina (Shewanella frigidimarina); assay: AUC; SfSFGH in 150 mM NaCl, 20 mM Tris-HCl pH 8.0, 20 °C, 40,000 rpm, monitored at 280 nm, analysed with SEDFIT
[2] = substrate: CC(=O)Oc1ccc([N+](=O)[O-])cc1; assay: purified protein; format: biochemical, Shewanella frigidimarina; details: 20 mM Tris-HCl pH 8.0, 120 mM NaCl, room temperature
[3] = substrate: CCCC(=O)Oc1ccc([N+](=O)[O-])cc1; assay: purified protein; format: biochemical, Shewanella frigidimarina; details: 20 mM Tris-HCl pH 8.0, 120 mM NaCl, room temperature
[4] = substrate: CCCCCCCC(=O)Oc1ccc([N+](=O)[O-])cc1; assay: purified protein; format: biochemical, Shewanella frigidimarina; details: 20 mM Tris-HCl pH 8.0, 120 mM NaCl, room temperature

Molecule	stoichiometry N [1]	Km [2]	kcat [2]	Vmax [2]	kcat/Km [2]	Km [3]	Vmax [3]	kcat [3]	kcat/Km [3]	Km [4]	Vmax [4]	kcat [4]	kcat/Km [4]
S-formylglutathione hydrolase (SfSFGH) from Shewanella frigidimarina (enzyme)	2	–	–	–	–	–	–	–	–	–	–	–	–
B1	–	515 (± 42.8) µM	0.310 (± 0.0258) s^-1	–	–	–	–	–	–	–	–	–	–
B2	–	1.393 ± 0.136 mM	1.85 ± 0.092 s⁻¹	323 µM/min	1300 M⁻¹ s⁻¹	303 ± 49 µM	51.7 µM/min	8 ± 0.326 s⁻¹	26400 M⁻¹ s⁻¹	495 ± 85 µM	28.6 µM/min	0.144 ± 0.007 s⁻¹	300 M⁻¹ s⁻¹
